# Source: EP4163303A1, “SYNTHETIC MULTI-EPITOPE CHIMERA AS A VACCINE AND TREATMENT FOR LEI[…] MAMMALS” (Universidad Complutense De Madrid, priority 2020, dated 2021)
# B1: … RFQSSAIMALQEITRGCVRRMARRGGVK (peptide)
# chain: TAVLEYLTAELLELSRSLKAINAQMSMSHRTMKIVNSYVEGLRFQSSAIMALQEITRGCVRRMARRGGVK
# modifications: Multi-epitopic chimera consisting of SEQ ID NO: 1, 2, 3 and 4 from Leishmania infantum
# Assays:
# L. infantum = assay: Protection against L. infantum in the murine model of visceral leishmaniasis; type: in vivo, mice; conditions: 6 weeks after i.v. infection with 5×10^5 L. infantum promastigotes; versus Saponin and PBS groups
# Procedure: (§1) To assess the immunogenicity of the synthetic multi-epitope chimera characterised by SEQ ID NO: 5, inoculations were performed subcutaneously in three groups of mice (n=8/group). The animals of one group, referred to as Seq5, were inoculated with 50 µg of the synthetic chimera characterised by SEQ ID NO: 5 and 25 µg of saponin, as an adjuvant; the animals of another group, saponin control group, were inoculated with 25 µg of saponin; and the PBS control group was inoculated with PBS (buffer in which both the synthetic multi-epitope chimera characterised by SEQ ID NO: 5 and the adjuvant were transported). The inoculation was carried out on the left rear plantar pad on days 60, 45 and 30, with respect to day zero of infection, with a total volume of 50 µl.
# 30 days after the last immunisation carried out as described in example 3, an infection was intravenously performed with 5×10^5 infective L. infantum promastigotes in the 3 groups of animals (which we have named Seq5, Saponin and PBS). 6 weeks after infection, the animals were euthanised and the parasite load in the VL target organs was assessed. The parasite count was carried out by decimal dilutions of spleen and liver macerates, separately, and their subsequent observation under a microscope. […]
# [1] = tested on: BMDCs infected with L. infantum; assay: Leishmanicidal activity in L. infantum infected BMDCs co-cultured with splenocytes of immunised animals; type: cell-based, mice; conditions: 24 and 72 hours of postinfection incubation; versus Saponin and PBS control groups
# Procedure: as §1
# The leishmanicidal activity of the chimera characterised by SEQ ID NO: 5 (indicated in the figure as Seq5) was assessed in BMDC. Virgin BMDCs infected with L. infantum were co-cultured with splenocytes from animals previously immunised with the chimera characterised by SEQ ID NO: 5 as indicated in example 3, and with splenocytes from animals previously inoculated with the two controls used according to example 5. The parameters of infected cells and number of intracellular amastigotes were determined by optical microscopy. The data are presented as the mean ± SD. […]
# [2] = Immunogenicity in immunised mice: cytokine ELISA in BMDC/splenocyte co-cultures and humoral response; type: in vivo
# Procedure: as §1
# The displacement of the immune response in the group immunised with the chimera characterised by SEQ ID NO: 5 correlates with increased leishmanicidal activity in target cells infected with Leishmania.
# Use was made of virgin bone marrow-derived dendritic cells (BMDC) stimulated with soluble Leishmania antigen (SLA; produced with the supernatants obtained after having lysed cultures of Leishmania promastigotes obtained after sonication and subsequent centrifugation), grey bars; or stimulated with the chimera characterised by SEQ ID NO: 5, white bars; unstimulated BMDC was used as negative control, indicated as N-E with black bars. The BMDCs were co-cultured with spleen cells, splenocytes, of the animals previously immunised as indicated in example 3. Cytokine production (pg/ml) was quantified using the ELISA technique. The data are presented as the mean ± standard deviation (SD). The hash marks indicate statistically significant differences (#, P < 0.05; ##, P <0.001) between the immunised groups and the two control groups (Saponin and PBS). The asterisk indicates statistically significant differences (*, P < 0.05; **, P < 0.001).
# [3] = splenocytes of immunised mice co-cultured with BMDC stimulated with the chimera or SLA, ELISA, versus Saponin and PBS controls
molecule,measurement,setting,value
B1,parasite load in the liver (H),L. infantum,lower parasite load
same,parasite load in the spleen (B),L. infantum,lower parasite load
same,number of intracellular amastigotes detected per cell (No./BMDC),[1],lower number
same,percentage of infected target cells (% BMDC),[1],notable reduction
same,specific humoral response against the synthetic multi-epitope chimera (isotype),[2]; mice immunised s.c. with 50 µg chimera and 25 µg saponin,redirection of the specific humoral response against the synthetic multi-epitope chimera to the IgG2a isotype
same,immune response profile,"[2]; mice immunised s.c. with 50 µg chimera and 25 µg saponin, versus Saponin and PBS controls",protective Th1 cell response profile
same,production of IFN-γ,[2]; [3],greater amount
same,production of IL-12,[2]; [3],greater amount
